Test results taken from patent publication US20140087995A1 (published 2014).
Numbered stars: 1 amine (or outer) side, 2 acyl side, 3 side chain; on linkers, the order of the positions; unused ones are H or OH. Bridge positions count the residues as written; N and C are the ends. Side chains are listed from the residue outwards. Ends that are not written are not given here. * marks the point of attachment. C20 diacid = O=C(O)CCCCCCCCCCCCCCCCCCC(=O)*; γGlu = O=C(O)[C@H](CCC(=O)[*:2])N[*:1]

Molecular target: T1, human amylin receptor (amylin 3(a) receptor: human calcitonin receptor co-expressed with RAMP-3) (human, UniProt P30988 25-474; O60896 24-148, limits assumed)
T1 construct: whole, on cells; Used as cell membranes prepared from the Amylin 3(a)/CRE-luc BHK cells (Assay V); also called hAmylin-R; hAmylinR
T1 sequence (looked up) 1: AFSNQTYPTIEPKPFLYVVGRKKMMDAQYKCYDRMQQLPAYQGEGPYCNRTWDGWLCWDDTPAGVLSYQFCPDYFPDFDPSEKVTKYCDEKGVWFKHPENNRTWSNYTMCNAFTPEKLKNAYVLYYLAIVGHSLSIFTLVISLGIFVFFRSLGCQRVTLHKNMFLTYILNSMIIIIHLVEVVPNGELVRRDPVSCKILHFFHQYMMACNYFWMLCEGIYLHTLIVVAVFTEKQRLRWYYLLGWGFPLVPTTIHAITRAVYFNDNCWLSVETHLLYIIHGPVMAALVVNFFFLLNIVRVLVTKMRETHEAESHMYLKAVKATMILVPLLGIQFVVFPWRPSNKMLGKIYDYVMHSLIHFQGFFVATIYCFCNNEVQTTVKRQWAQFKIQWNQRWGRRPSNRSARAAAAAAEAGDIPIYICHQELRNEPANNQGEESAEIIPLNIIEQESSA
T1 sequence (looked up) 2: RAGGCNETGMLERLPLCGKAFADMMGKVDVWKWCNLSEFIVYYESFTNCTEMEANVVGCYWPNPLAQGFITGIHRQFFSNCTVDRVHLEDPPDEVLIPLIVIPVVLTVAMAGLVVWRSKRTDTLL
Experiment: SPA displacement of 125I-rat amylin, hAmylin 3(a) receptor membranes
How it was run: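 One-site competition analysis of SPA counts yielded IC₅₀ as a measure of affinity. Membranes were at 35 ng/μL final; incubation was 120 min at 25° C, pH 7.4.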

Binder	IC50 [nM]
K([γGlu-C20 diacid])CNTATCATQRLAAFLRHSSPNFGAIPSSTNVGPNTY-NH2 (disulfide 2-7; N-terminus assumed; SMILES CC[C@H](C)[C@H](NC(=O)[C@H](C)NC(=O)CNC(=O)[C@H](Cc1ccccc1)NC(=O)[C@H](CC(N)=O)NC(=O)[C@@H]1CCCN1C(=O)[C@H](CO)NC(=O)[C@H](CO)NC(=O)[C@H](Cc1c[nH]cn1)NC(=O)[C@H](CCCNC(=N)N)NC(=O)[C@H](CC(C)C)NC(=O)[C@H](Cc1ccccc1)NC(=O)[C@H](C)NC(=O)[C@H](C)NC(=O)[C@H](CC(C)C)NC(=O)[C@H](CCCNC(=N)N)NC(=O)[C@H](CCC(N)=O)NC(=O)[C@@H](NC(=O)[C@H](C)NC(=O)[C@@H]1CSSC[C@H](NC(=O)[C@@H](N)CCCCNC(=O)CC[C@H](NC(=O)CCCCCCCCCCCCCCCCCCC(=O)O)C(=O)O)C(=O)N[C@@H](CC(N)=O)C(=O)N[C@@H]([C@@H](C)O)C(=O)N[C@@H](C)C(=O)N[C@@H]([C@@H](C)O)C(=O)N1)[C@@H](C)O)C(=O)N1CCC[C@H]1C(=O)N[C@@H](CO)C(=O)N[C@@H](CO)C(=O)N[C@H](C(=O)N[C@@H](CC(N)=O)C(=O)N[C@H](C(=O)NCC(=O)N1CCC[C@H]1C(=O)N[C@@H](CC(N)=O)C(=O)N[C@H](C(=O)N[C@@H](Cc1ccc(O)cc1)C(N)=O)[C@@H](C)O)C(C)C)[C@@H](C)O, also called compound 94)	0.148
K([γGlu-C20 diacid])CNTATCATQRLADFLRHSSPNFGAIPSSTNVGPRTY-NH2 (disulfide 2-7; N-terminus assumed; SMILES CC[C@H](C)[C@H](NC(=O)[C@H](C)NC(=O)CNC(=O)[C@H](Cc1ccccc1)NC(=O)[C@H](CC(N)=O)NC(=O)[C@@H]1CCCN1C(=O)[C@H](CO)NC(=O)[C@H](CO)NC(=O)[C@H](Cc1c[nH]cn1)NC(=O)[C@H](CCCNC(=N)N)NC(=O)[C@H](CC(C)C)NC(=O)[C@H](Cc1ccccc1)NC(=O)[C@H](CC(=O)O)NC(=O)[C@H](C)NC(=O)[C@H](CC(C)C)NC(=O)[C@H](CCCNC(=N)N)NC(=O)[C@H](CCC(N)=O)NC(=O)[C@@H](NC(=O)[C@H](C)NC(=O)[C@@H]1CSSC[C@H](NC(=O)[C@@H](N)CCCCNC(=O)CC[C@H](NC(=O)CCCCCCCCCCCCCCCCCCC(=O)O)C(=O)O)C(=O)N[C@@H](CC(N)=O)C(=O)N[C@@H]([C@@H](C)O)C(=O)N[C@@H](C)C(=O)N[C@@H]([C@@H](C)O)C(=O)N1)[C@@H](C)O)C(=O)N1CCC[C@H]1C(=O)N[C@@H](CO)C(=O)N[C@@H](CO)C(=O)N[C@H](C(=O)N[C@@H](CC(N)=O)C(=O)N[C@H](C(=O)NCC(=O)N1CCC[C@H]1C(=O)N[C@@H](CCCNC(=N)N)C(=O)N[C@H](C(=O)N[C@@H](Cc1ccc(O)cc1)C(N)=O)[C@@H](C)O)C(C)C)[C@@H](C)O)	0.281

Molecular target: T2, human calcitonin receptor (human, UniProt P30988 25-474)
T2 sequence (looked up): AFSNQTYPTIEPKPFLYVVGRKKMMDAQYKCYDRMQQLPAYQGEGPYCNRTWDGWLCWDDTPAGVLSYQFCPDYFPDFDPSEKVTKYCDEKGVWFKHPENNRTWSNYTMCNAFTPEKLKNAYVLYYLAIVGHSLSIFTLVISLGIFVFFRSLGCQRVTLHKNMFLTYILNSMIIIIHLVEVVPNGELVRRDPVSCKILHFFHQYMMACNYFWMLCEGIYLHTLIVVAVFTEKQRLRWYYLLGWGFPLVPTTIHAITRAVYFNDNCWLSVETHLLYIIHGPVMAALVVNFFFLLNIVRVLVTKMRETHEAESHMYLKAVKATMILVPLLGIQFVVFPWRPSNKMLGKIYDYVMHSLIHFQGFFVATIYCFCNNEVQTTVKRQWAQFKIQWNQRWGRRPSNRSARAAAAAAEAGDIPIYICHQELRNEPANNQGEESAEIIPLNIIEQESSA
Experiment: cell-based or functional assay

Binder	hCTR funct. EC50 (CRE luciferase reporter, BHK cells) [nM]
K([γGlu-C20 diacid])CNTATCATQRLAEFLRHSSPNFGAIPSSTNVGPNTP-NH2 (disulfide 2-7; N-terminus assumed; SMILES CC[C@H](C)[C@H](NC(=O)[C@H](C)NC(=O)CNC(=O)[C@H](Cc1ccccc1)NC(=O)[C@H](CC(N)=O)NC(=O)[C@@H]1CCCN1C(=O)[C@H](CO)NC(=O)[C@H](CO)NC(=O)[C@H](Cc1c[nH]cn1)NC(=O)[C@H](CCCNC(=N)N)NC(=O)[C@H](CC(C)C)NC(=O)[C@H](Cc1ccccc1)NC(=O)[C@H](CCC(=O)O)NC(=O)[C@H](C)NC(=O)[C@H](CC(C)C)NC(=O)[C@H](CCCNC(=N)N)NC(=O)[C@H](CCC(N)=O)NC(=O)[C@@H](NC(=O)[C@H](C)NC(=O)[C@@H]1CSSC[C@H](NC(=O)[C@@H](N)CCCCNC(=O)CC[C@H](NC(=O)CCCCCCCCCCCCCCCCCCC(=O)O)C(=O)O)C(=O)N[C@@H](CC(N)=O)C(=O)N[C@@H]([C@@H](C)O)C(=O)N[C@@H](C)C(=O)N[C@@H]([C@@H](C)O)C(=O)N1)[C@@H](C)O)C(=O)N1CCC[C@H]1C(=O)N[C@@H](CO)C(=O)N[C@@H](CO)C(=O)N[C@H](C(=O)N[C@@H](CC(N)=O)C(=O)N[C@H](C(=O)NCC(=O)N1CCC[C@H]1C(=O)N[C@@H](CC(N)=O)C(=O)N[C@H](C(=O)N1CCC[C@H]1C(N)=O)[C@@H](C)O)C(C)C)[C@@H](C)O, Synthetic acylated analogue of human amylin)	0.09
K([γGlu-C20 diacid])CNTATCATQRLAHFLRHSSPNFGAIPSSTNVGPNTP-NH2 (disulfide 2-7; N-terminus assumed; SMILES CC[C@H](C)[C@H](NC(=O)[C@H](C)NC(=O)CNC(=O)[C@H](Cc1ccccc1)NC(=O)[C@H](CC(N)=O)NC(=O)[C@@H]1CCCN1C(=O)[C@H](CO)NC(=O)[C@H](CO)NC(=O)[C@H](Cc1c[nH]cn1)NC(=O)[C@H](CCCNC(=N)N)NC(=O)[C@H](CC(C)C)NC(=O)[C@H](Cc1ccccc1)NC(=O)[C@H](Cc1c[nH]cn1)NC(=O)[C@H](C)NC(=O)[C@H](CC(C)C)NC(=O)[C@H](CCCNC(=N)N)NC(=O)[C@H](CCC(N)=O)NC(=O)[C@@H](NC(=O)[C@H](C)NC(=O)[C@@H]1CSSC[C@H](NC(=O)[C@@H](N)CCCCNC(=O)CC[C@H](NC(=O)CCCCCCCCCCCCCCCCCCC(=O)O)C(=O)O)C(=O)N[C@@H](CC(N)=O)C(=O)N[C@@H]([C@@H](C)O)C(=O)N[C@@H](C)C(=O)N[C@@H]([C@@H](C)O)C(=O)N1)[C@@H](C)O)C(=O)N1CCC[C@H]1C(=O)N[C@@H](CO)C(=O)N[C@@H](CO)C(=O)N[C@H](C(=O)N[C@@H](CC(N)=O)C(=O)N[C@H](C(=O)NCC(=O)N1CCC[C@H]1C(=O)N[C@@H](CC(N)=O)C(=O)N[C@H](C(=O)N1CCC[C@H]1C(N)=O)[C@@H](C)O)C(C)C)[C@@H](C)O, Synthetic acylated analogue of human amylin)	0.04
K([γGlu-γGlu-C20 diacid])CNTATCATQRLAEFLRHSSPNFGAIPSSTNVGSNTP-NH2 (disulfide 2-7 (inferred), Synthetic acylated analogue of human amylin; also called compound 13)	0.47
K([γGlu-γGlu-C20 diacid])CNTATCATQRLAEFLRHSSPNFGAIPSSTNVGPETP-NH2 (disulfide 2-7; N-terminus assumed; SMILES CC[C@H](C)[C@H](NC(=O)[C@H](C)NC(=O)CNC(=O)[C@H](Cc1ccccc1)NC(=O)[C@H](CC(N)=O)NC(=O)[C@@H]1CCCN1C(=O)[C@H](CO)NC(=O)[C@H](CO)NC(=O)[C@H](Cc1c[nH]cn1)NC(=O)[C@H](CCCNC(=N)N)NC(=O)[C@H](CC(C)C)NC(=O)[C@H](Cc1ccccc1)NC(=O)[C@H](CCC(=O)O)NC(=O)[C@H](C)NC(=O)[C@H](CC(C)C)NC(=O)[C@H](CCCNC(=N)N)NC(=O)[C@H](CCC(N)=O)NC(=O)[C@@H](NC(=O)[C@H](C)NC(=O)[C@@H]1CSSC[C@H](NC(=O)[C@@H](N)CCCCNC(=O)CC[C@H](NC(=O)CC[C@H](NC(=O)CCCCCCCCCCCCCCCCCCC(=O)O)C(=O)O)C(=O)O)C(=O)N[C@@H](CC(N)=O)C(=O)N[C@@H]([C@@H](C)O)C(=O)N[C@@H](C)C(=O)N[C@@H]([C@@H](C)O)C(=O)N1)[C@@H](C)O)C(=O)N1CCC[C@H]1C(=O)N[C@@H](CO)C(=O)N[C@@H](CO)C(=O)N[C@H](C(=O)N[C@@H](CC(N)=O)C(=O)N[C@H](C(=O)NCC(=O)N1CCC[C@H]1C(=O)N[C@@H](CCC(=O)O)C(=O)N[C@H](C(=O)N1CCC[C@H]1C(N)=O)[C@@H](C)O)C(C)C)[C@@H](C)O, Synthetic acylated analogue of human amylin)	0.102
K([γGlu-C20 diacid])CNTATCATQRLAEFLRHSSPNFGAIPSSTNVGSNTP-NH2 (disulfide 2-7; N-terminus assumed; SMILES CC[C@H](C)[C@H](NC(=O)[C@H](C)NC(=O)CNC(=O)[C@H](Cc1ccccc1)NC(=O)[C@H](CC(N)=O)NC(=O)[C@@H]1CCCN1C(=O)[C@H](CO)NC(=O)[C@H](CO)NC(=O)[C@H](Cc1c[nH]cn1)NC(=O)[C@H](CCCNC(=N)N)NC(=O)[C@H](CC(C)C)NC(=O)[C@H](Cc1ccccc1)NC(=O)[C@H](CCC(=O)O)NC(=O)[C@H](C)NC(=O)[C@H](CC(C)C)NC(=O)[C@H](CCCNC(=N)N)NC(=O)[C@H](CCC(N)=O)NC(=O)[C@@H](NC(=O)[C@H](C)NC(=O)[C@@H]1CSSC[C@H](NC(=O)[C@@H](N)CCCCNC(=O)CC[C@H](NC(=O)CCCCCCCCCCCCCCCCCCC(=O)O)C(=O)O)C(=O)N[C@@H](CC(N)=O)C(=O)N[C@@H]([C@@H](C)O)C(=O)N[C@@H](C)C(=O)N[C@@H]([C@@H](C)O)C(=O)N1)[C@@H](C)O)C(=O)N1CCC[C@H]1C(=O)N[C@@H](CO)C(=O)N[C@@H](CO)C(=O)N[C@H](C(=O)N[C@@H](CC(N)=O)C(=O)N[C@H](C(=O)NCC(=O)N[C@@H](CO)C(=O)N[C@@H](CC(N)=O)C(=O)N[C@H](C(=O)N1CCC[C@H]1C(N)=O)[C@@H](C)O)C(C)C)[C@@H](C)O, Synthetic acylated analogue of human amylin; also called compound 12)	0.185
